The text below walks through data of patent publication US20250222128A1 (Zymeworks, published 2025).

The target in assay [1] is T1, c-Met (hepatocyte growth factor receptor, HGFR), endogenous on tumour cell lines (UniProt P08581 25-1390, limits assumed).
T1 construct: whole, on cells
Briefly: apparent Kd, flow cytometry on H292 cells (endogenous cMet). How it is done: (§1) Briefly, cells were seeded at 50,000 cells/well in V-bottom 96-well plates and treated with antibody for 24 hours at 4° C. to prevent internalization. Following incubation, cells were washed and stained with anti-human IgG Fc AF647 conjugate (Jackson ImmunoResearch Laboratories, Inc., West Grove, PA; Cat. No. 109-605-098) at 4° C. for 30 min. Following incubation and washing, fluorescence was detected by flow cytometry on a BD LSRFortessa™ Cell Analyzer (BD Biosciences, Franklin Lake, NJ) with 1,000 minimum events collected per well. AF647/APC-A GeoMean (fluorescence signal geometric mean, proportional to anti-Human AF647 binding) in live cell population was plotted using GraphPad Prism Version 8 (GraphPad Software, San Diego, CA).

The target in assay [2] is T1, c-Met (hepatocyte growth factor …). Kind of assay: apparent Kd, flow cytometry on SNU-5 cells (endogenous cMet). How it is done: as §1
In general terms: A flow cytometer gives signals particle by particle.

Assay [3] shares this target. Kind of assay: flow cytometry on H292 cells (endogenous cMet), 24 h at 4 C, anti-human IgG Fc AF647. How it is done: as §1
For assay [4] the target is unchanged. Briefly: flow cytometry on SNU-5 cells (endogenous cMet), 24 h at 4 C, anti-human IgG Fc AF647. How it is done:
as §1

The target is the same in assay [5]. Briefly: apparent Kd, flow cytometry on H292 cells (endogenous cMet). The procedure:
as §1
(§2) Cellular binding was determined as described in Example 10.
The source holds these as a separate data set.

For assay [6] the target is unchanged. Briefly: apparent Kd, flow cytometry on SNU-5 cells (endogenous cMet). The procedure: as §1, §2
This is another data set of the same source.

Assay [7] shares this target. Kind of assay: flow cytometry on H292 cells (endogenous cMet), as in Example 10. The procedure: as §1, §2
Assay [8] has the same target. Briefly: flow cytometry on SNU-5 cells (endogenous cMet), as in Example 10. How it is done:
as §1, §2

Numbering of substitutions follows the chain as printed.

T1 sequence (P08581 25-1390 limits assumed): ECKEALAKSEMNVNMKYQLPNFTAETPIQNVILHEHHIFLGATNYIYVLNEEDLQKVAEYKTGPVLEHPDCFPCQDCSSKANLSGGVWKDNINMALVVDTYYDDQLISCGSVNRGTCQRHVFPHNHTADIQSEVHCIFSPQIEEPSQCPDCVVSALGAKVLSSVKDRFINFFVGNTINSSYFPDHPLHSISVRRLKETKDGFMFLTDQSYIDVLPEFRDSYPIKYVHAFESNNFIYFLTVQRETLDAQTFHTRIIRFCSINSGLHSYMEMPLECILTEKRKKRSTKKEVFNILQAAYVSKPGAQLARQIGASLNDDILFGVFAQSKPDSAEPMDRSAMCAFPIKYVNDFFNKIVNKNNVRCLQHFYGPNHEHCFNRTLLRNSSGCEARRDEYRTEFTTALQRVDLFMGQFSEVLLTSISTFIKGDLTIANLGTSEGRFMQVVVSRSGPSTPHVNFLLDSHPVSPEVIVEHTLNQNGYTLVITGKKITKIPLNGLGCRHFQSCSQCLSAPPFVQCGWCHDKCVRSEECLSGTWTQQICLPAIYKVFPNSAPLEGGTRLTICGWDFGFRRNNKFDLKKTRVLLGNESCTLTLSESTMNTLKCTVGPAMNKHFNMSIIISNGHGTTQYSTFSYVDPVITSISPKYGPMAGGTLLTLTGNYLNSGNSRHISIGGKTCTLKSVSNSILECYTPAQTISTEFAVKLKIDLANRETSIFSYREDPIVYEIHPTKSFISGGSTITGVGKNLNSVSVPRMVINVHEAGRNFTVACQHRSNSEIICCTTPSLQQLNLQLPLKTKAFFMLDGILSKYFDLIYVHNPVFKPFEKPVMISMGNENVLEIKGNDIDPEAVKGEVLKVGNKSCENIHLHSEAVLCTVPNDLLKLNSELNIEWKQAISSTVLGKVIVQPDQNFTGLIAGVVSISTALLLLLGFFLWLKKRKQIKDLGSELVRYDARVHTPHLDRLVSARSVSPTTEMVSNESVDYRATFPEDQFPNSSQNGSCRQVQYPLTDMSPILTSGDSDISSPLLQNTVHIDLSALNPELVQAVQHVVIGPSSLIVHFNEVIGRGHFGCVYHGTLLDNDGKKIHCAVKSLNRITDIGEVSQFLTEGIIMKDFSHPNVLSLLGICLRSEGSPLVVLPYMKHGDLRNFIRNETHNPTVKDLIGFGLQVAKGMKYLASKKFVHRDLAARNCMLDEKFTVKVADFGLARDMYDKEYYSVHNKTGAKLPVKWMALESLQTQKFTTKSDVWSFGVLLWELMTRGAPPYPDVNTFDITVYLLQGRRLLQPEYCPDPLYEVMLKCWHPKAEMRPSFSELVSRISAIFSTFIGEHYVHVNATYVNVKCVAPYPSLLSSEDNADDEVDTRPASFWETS

B1: v32634 (telisotuzumab paratope, HomoFc, unmodified hinge, full-size IgG1 antibody) (antibody, V domains shown)
VH: QVQLVQSGAEVKKPGASVKVSCKASGYIFTAYTMHWVRQAPGQGLEWMGWIKPNNGLANYAQKFQGRVTMTRDTSISTAYMELSRLRSDDTAVYYCARSEITTEFDYWGQGTLVTVSS
VL: DIVMTQSPDSLAVSLGERATINCKSSESVDSYANSFLHWYQQKPGQPPKLLIYRASTRESGVPDRFSGSGSGTDFTLTISSLQAEDVAVYYCQQSKEDPLTFGGGTKVEIKR
notes: also called variant v32634; unconjugated HomoFc variant
As to B1, the results for the Kd in assay [1] and in assay [2] were 0.02 nM and 0.59 nM, respectively. Also, the Bmax in assay [3] was 2240 AF647 GeoMean fluorescence; in assay [4], 37200 AF647 GeoMean fluorescence.

B2: v32634-Drug-Linker 002 DAR4 (antibody, V domains shown)
VH: B1 VH
VL: B1 VL
modifications: Drug-Linker 002 stochastically conjugated to lysine residues of the antibody, about DAR 4; Drug-Linker 002 (auristatin analogue Compound 1) stochastically conjugated to lysine residues of the antibody, about DAR 4
notes: Antibody-drug conjugate of v32634
In the case of B2, the Kd in assay [2] came to 0.46 nM. The Bmax in assay [3] was 2130 AF647 GeoMean fluorescence; in assay [4], 33700 AF647 GeoMean fluorescence.

B3: v32634-Drug-Linker 002 DAR6 (antibody, V domains shown)
VH: B1 VH
VL: B1 VL
modifications: Drug-Linker 002 stochastically conjugated to lysine residues of the antibody, about DAR 6; Drug-Linker 002 (auristatin analogue Compound 1) stochastically conjugated to lysine residues of the antibody, about DAR 6
notes: as for B2
Take B3: the Kd in assay [2] was 0.71 nM. For the same molecule, the figures for the Bmax in assay [3] and in assay [4] were 2200 AF647 GeoMean fluorescence and 41100 AF647 GeoMean fluorescence, respectively.

B4: v17427 (telisotuzumab paratope, HetFc, unmodified hinge, full-size IgG1 antibody) (antibody)
heavy 1: QVQLVQSGAEVKKPGASVKVSCKASGYIFTAYTMHWVRQAPGQGLEWMGWIKPNNGLANYAQKFQGRVTMTRDTSISTAYMELSRLRSDDTAVYYCARSEITTEFDYWGQGTLVTVSSASTKGPSVFPLAPSSKSTSGGTAALGCLVKDYFPEPVTVSWNSGALTSGVHTFPAVLQSSGLYSLSSVVTVPSSSLGTQTYICNVNHKPSNTKVDKKVEPKSCDKTHTCPPCPAPELLGGPSVFLFPPKPKDTLMISRTPEVTCVVVDVSHEDPEVKFNWYVDGVEVHNAKTKPREEQYNSTYRVVSVLTVLHQDWLNGKEYKCKVSNKALPAPIEKTISKAKGQPREPQVYVYPPSRDELTKNQVSLTCLVKGFYPSDIAVEWESNGQPENNYKTTPPVLDSDGSFALVSKLTVDKSRWQQGNVFSCSVMHEALHNHYTQKSLSLSPG
heavy 2: not shown
light: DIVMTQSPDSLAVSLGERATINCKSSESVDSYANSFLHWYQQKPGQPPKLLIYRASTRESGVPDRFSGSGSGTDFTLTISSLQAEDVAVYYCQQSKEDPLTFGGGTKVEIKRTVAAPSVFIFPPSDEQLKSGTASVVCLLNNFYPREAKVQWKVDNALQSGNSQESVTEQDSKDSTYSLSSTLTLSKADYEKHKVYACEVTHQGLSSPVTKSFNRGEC
notes: also called variant v17427; unconjugated HetFc variant
On to B4, for which the Kd in assay [1] worked out at 0.03 nM; in assay [5], 0.026 nM; in assay [2], 0.33 nM; in assay [6], 0.328 nM. For the same molecule, the Bmax in assay [7] is 2120 AF647 GeoMean fluorescence; in assay [8], 34800 AF647 GeoMean fluorescence; in assay [3] it was 2120 AF647 GeoMean fluorescence; in assay [4], 34800 AF647 GeoMean fluorescence.

B5: v17427-Drug-Linker 002 DAR 6 (antibody)
heavy 1: B4 heavy 1
heavy 2: not shown
light: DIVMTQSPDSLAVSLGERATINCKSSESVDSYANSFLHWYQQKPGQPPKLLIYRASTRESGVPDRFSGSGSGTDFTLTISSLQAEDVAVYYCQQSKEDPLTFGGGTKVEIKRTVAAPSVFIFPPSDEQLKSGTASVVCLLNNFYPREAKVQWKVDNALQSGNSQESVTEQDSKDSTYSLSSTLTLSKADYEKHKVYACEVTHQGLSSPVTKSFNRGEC
modifications: Drug-Linker 002 stochastically conjugated to lysine residues of the antibody, about DAR 6; Drug-Linker 002 (auristatin analogue Compound 1) stochastically conjugated to lysine residues of the antibody, about DAR 6
notes: Antibody-drug conjugate of v17427
For B5, the Kd in assay [1] is 0.05 nM; in assay [5], 0.047 nM; in assay [2], 0.43 nM; in assay [6], 0.435 nM. Further, the Bmax in assay [7] is 2150 AF647 GeoMean fluorescence; in assay [8], 33500 AF647 GeoMean fluorescence; in assay [3] it was 2150 AF647 GeoMean fluorescence; in assay [4], 33500 AF647 GeoMean fluorescence.

B6: v17427-Drug-Linker 002 DAR 4 (antibody)
heavy 1: B4 heavy 1
heavy 2: not shown
light: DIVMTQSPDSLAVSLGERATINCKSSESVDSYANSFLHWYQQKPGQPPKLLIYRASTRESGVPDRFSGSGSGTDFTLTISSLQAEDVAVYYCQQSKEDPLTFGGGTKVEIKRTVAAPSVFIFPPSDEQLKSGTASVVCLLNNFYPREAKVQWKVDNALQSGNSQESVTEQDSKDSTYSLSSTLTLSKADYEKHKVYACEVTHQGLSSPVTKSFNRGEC
modifications: Drug-Linker 002 stochastically conjugated to lysine residues of the antibody, about DAR 4; Drug-Linker 002 (auristatin analogue Compound 1) stochastically conjugated to lysine residues of the antibody, about DAR 4
notes: as for B5
B6: the Kd in assay [1] worked out at 0.04 nM; in assay [5], 0.04 nM; in assay [2], 0.43 nM; in assay [6], 0.428 nM. The Bmax in assay [7] is 2120 AF647 GeoMean fluorescence; in assay [8], 34100 AF647 GeoMean fluorescence; in assay [3] it was 2120 AF647 GeoMean fluorescence; in assay [4], 34100 AF647 GeoMean fluorescence.

B7: v29001 (telisotuzumab paratope, HetFc, unmodified hinge, two cysteine insertions between T299 and Y300) (antibody, human IgG1, kappa)
heavy 1: QVQLVQSGAEVKKPGASVKVSCKASGYIFTAYTMHWVRQAPGQGLEWMGWIKPNNGLANYAQKFQGRVTMTRDTSISTAYMELSRLRSDDTAVYYCARSEITTEFDYWGQGTLVTVSSASTKGPSVFPLAPSSKSTSGGTAALGCLVKDYFPEPVTVSWNSGALTSGVHTFPAVLQSSGLYSLSSVVTVPSSSLGTQTYICNVNHKPSNTKVDKKVEPKSCDKTHTCPPCPAPELLGGPSVFLFPPKPKDTLMISRTPEVTCVVVDVSHEDPEVKFNWYVDGVEVHNAKTKPREEQYNSTCYRVVSVLTVLHQDWLNGKEYKCKVSNKALPAPIEKTISKAKGQPREPQVYVYPPSRDELTKNQVSLTCLVKGFYPSDIAVEWESNGQPENNYKTTPPVLDSDGSFALVSKLTVDKSRWQQGNVFSCSVMHEALHNHYTQKSLSLSPG
heavy 2: B7 heavy 1 with Y353L, T368L, K394L, T396W, A407F, V409Y
light: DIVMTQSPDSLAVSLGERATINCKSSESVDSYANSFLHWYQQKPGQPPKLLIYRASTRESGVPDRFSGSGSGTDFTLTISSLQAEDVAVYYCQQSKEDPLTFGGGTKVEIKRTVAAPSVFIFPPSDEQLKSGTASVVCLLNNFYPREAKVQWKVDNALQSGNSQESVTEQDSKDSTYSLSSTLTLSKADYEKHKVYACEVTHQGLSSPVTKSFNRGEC
notes: also called variant v29001; cysteine insertion variant v29001
Regarding B7, the results for the Kd in assay [5] and in assay [6] were 0.024 nM and 0.428 nM, respectively. Further, the Bmax in assay [7] is 2040 AF647 GeoMean fluorescence; in assay [8], 32100 AF647 GeoMean fluorescence.

B8: v29001-Drug-Linker 001 DAR 2 (antibody, human IgG1, kappa)
heavy 1: B7 heavy 1
heavy 2: B7 heavy 1 with Y353L, T368L, K394L, T396W, A407F, V409Y
light: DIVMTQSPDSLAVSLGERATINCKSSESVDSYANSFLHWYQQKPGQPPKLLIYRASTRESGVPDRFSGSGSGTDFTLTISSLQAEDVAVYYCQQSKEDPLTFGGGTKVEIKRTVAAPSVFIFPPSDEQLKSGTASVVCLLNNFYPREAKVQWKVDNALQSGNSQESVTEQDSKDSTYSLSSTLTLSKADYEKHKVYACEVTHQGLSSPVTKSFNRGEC
modifications: Drug-Linker 001 on the cysteine inserted between T299 and Y300 (EU); Drug-Linker 001 (auristatin analogue Compound 1) on the cysteine inserted between T299 and Y300 (EU)
notes: Site-specific cysteine-conjugated antibody-drug conjugate of v29001
Regarding B8, the Kd is 0.064 nM in assay [5] and 0.584 nM in assay [6]. For the same molecule, the Bmax in assay [7] is 2070 AF647 GeoMean fluorescence; in assay [8], 35800 AF647 GeoMean fluorescence.

B9: v29001-Drug-Linker 004 DAR 6 (antibody, human IgG1, kappa)
heavy 1: B7 heavy 1
heavy 2: B7 heavy 1 with Y353L, T368L, K394L, T396W, A407F, V409Y
light: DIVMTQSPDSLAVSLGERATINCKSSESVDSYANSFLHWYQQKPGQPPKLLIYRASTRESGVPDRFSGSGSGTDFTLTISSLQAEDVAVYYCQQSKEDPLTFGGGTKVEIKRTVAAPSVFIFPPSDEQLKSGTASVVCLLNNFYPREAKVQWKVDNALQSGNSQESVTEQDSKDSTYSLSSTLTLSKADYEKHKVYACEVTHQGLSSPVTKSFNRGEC
modifications: trivalent Drug-Linker 004 on the cysteine inserted between T299 and Y300 (EU); trivalent Drug-Linker 004 (three Compound 1) on the cysteine inserted between T299 and Y300 (EU)
notes: as for B8
With B9, the Kd in assay [5] was 0.028 nM; in assay [6], 0.615 nM. Also, the Bmax was 2010 AF647 GeoMean fluorescence in assay [7] and 37700 AF647 GeoMean fluorescence in assay [8].

B10: v29001-Drug-Linker 003 DAR 4 (antibody, human IgG1, kappa)
heavy 1: B7 heavy 1
heavy 2: B7 heavy 1 with Y353L, T368L, K394L, T396W, A407F, V409Y
light: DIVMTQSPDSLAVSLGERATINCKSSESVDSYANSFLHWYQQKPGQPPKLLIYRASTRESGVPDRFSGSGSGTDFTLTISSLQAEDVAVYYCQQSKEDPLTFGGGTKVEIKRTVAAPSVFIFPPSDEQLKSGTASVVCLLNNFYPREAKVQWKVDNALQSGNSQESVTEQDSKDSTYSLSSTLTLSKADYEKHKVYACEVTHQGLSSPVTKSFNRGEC
modifications: bivalent Drug-Linker 003 on the cysteine inserted between T299 and Y300 (EU); bivalent Drug-Linker 003 (two Compound 1) on the cysteine inserted between T299 and Y300 (EU)
notes: as for B8
As to B10, the Kd in assay [5] is 0.03 nM; in assay [6] it was 1.13 nM. The Bmax in assay [7] was 2048 AF647 GeoMean fluorescence; in assay [8] it was 38600 AF647 GeoMean fluorescence.
